Measurements from patent US9289478B2, “Formulations of tumour-associated peptides binding to human leukocyte antigen (HLA) class I or class II molecules for vaccine” (IMMATICS BIOTECHNOLOGIES GMBH, priority 2008, dated 2016).
Ends that are not written are not given here.

Columns and labels:
Assay type in all cases: physicochemical
[1] = HPLC-assay for in-use stability after reconstitution with 4.2% sodium hydrogen carbonate solution (Example 3, peptides SEQ ID NO 11-23)
Description: For clinical trials the above described formulation is dissolved in 700 μl sodium hydrogen carbonate (4.2%). To dissolve the lyophilisate, the vial and the diluent shall be shaken vigorously for 1 minute, check whether solution is clear, otherwise continue shaking for another minute until the solution is clear. Administration of 500 μL of the solution has to occur within 1 h after reconstitution. Dissolved lyophilisate may be stored aseptically at room temperature for up to 1 hour following reconstitution.
(§1) Identity, purity and peptide content are determined by analytical RP-HPLC chromatography. Detection wavelength was 220 nm.

[2] = HPLC-assay for stability of peptides in lyophilised formulation on storage for 3 months (Example 4); details: for stability of peptides in formulation, 1 M: 1 month; for stability of peptides in formulation, 2 M: 2 months; for stability of peptides in formulation, 3 M: 3 months
Description: as §1

[3] = Solubility of peptide in 90% acetic acid and in water
Excerpt: Advantageously, the formulation according to the invention is suitable for stable formulations containing very hydrophobic peptides (for example IMA-CHI-001; SEQ ID NO: 23).

Sequence | in-use stability, Peptide [%] ([1]; +Mannitol/Lutrol, 2h) | in-use stability, Peptide [%] ([1]; +Mannitol/Lutrol, 4h) | in-use stability, Peptide [%] ([1]; +Mannitol/Lutrol, 6h) | in-use stability, Peptide [%] ([1]; +Mannitol/Lutrol, Initial) | in-use stability, Peptide [%] ([1]; no excipients, 2h) | in-use stability, Peptide [%] ([1]; no excipients, 4h) | in-use stability, Peptide [%] ([1]; no excipients, 6h) | in-use stability, Peptide [%] ([1]; no excipients, Initial) | stability of peptides in formulation, 1 M ([2]; +5° C. +/- 3° C.) | stability of peptides in formulation, 2 M ([2]; +5° C. +/- 3° C.) | stability of peptides in formulation, 3 M ([2]; +5° C. +/- 3° C.) | stability of peptides in formulation, INITIAL ([2]; +5° C. +/- 3° C.) [%] | stability of peptides in formulation, 1 M ([2]; +25° C. +/- 2° C.) | stability of peptides in formulation, 2 M ([2]; +25° C. +/- 2° C.) | stability of peptides in formulation, 3 M ([2]; +25° C. +/- 2° C.) | stability of peptides in formulation, INITIAL ([2]; +25° C. +/- 2° C.) [%] | stability of peptides in formulation, 1 M ([2]; -20° C. +/- 5° C.) | stability of peptides in formulation, 2 M ([2]; -20° C. +/- 5° C.) | stability of peptides in formulation, 3 M ([2]; -20° C. +/- 5° C.) | stability of peptides in formulation, INITIAL ([2]; -20° C. +/- 5° C.) [%] | further results
KIQEILTQV (listed as Homo sapiens) [IGF2BP3-001] | 100.4 | 100.6 | 100.7 | 100.0 | 100.0 | 101.2 | 96.0 | 100.0 | 99.00 % of Initial | 97.92 % of Initial | 98.57 % of Initial | 100.0 | 98.01 % of Initial | 96.77 % of Initial | 97.34 % of Initial | 100.0 | 99.10 % of Initial | 97.54 % of Initial | 98.42 % of Initial | 100.0 | 
SLWAGVVVL [CHI-001] | 100.0 |  | 100.2 | 100.0 | 102.2 |  | 90.6 | 100.0 |  |  |  |  |  |  |  |  |  |  |  |  | solubility ([3]; 90% acetic acid): ~2900 µg/mL; solubility in water ([3]; water): very insoluble
LTFGDVVAV (listed as Homo sapiens) [FABP7-001] | 100.9 | 100.7 | 100.6 | 100.0 | 100.5 | 100.9 | 96.3 | 100.0 | 99.08 % of Initial | 98.15 % of Initial | 98.66 % of Initial | 100.0 | 98.43 % of Initial | 97.71 % of Initial | 98.67 % of Initial | 100.0 | 99.09 % of Initial | 97.60 % of Initial | 98.39 % of Initial | 100.0 | 
TMLARLASA (listed as Homo sapiens) [CSP-001, Chondroitin sulfate proteoglycan 4 peptide] | 100.0 | 100.1 | 99.6 | 100.0 | 99.2 | 99.7 | 95.0 | 100.0 | 98.99 % of Initial | 98.05 % of Initial | 99.81 % of Initial | 100.0 | 98.04 % of Initial | 96.99 % of Initial | 98.71 % of Initial | 100.0 | 98.99 % of Initial | 97.61 % of Initial | 99.61 % of Initial | 100.0 | 
ALWAWPSEL (listed as Homo sapiens) [BCA-002, Brevican tumour-associated peptide] | 99.8 | 99.6 | 98.9 | 100.0 | 99.9 | 100.1 | 95.4 | 100.0 | 99.13 % of Initial | 98.04 % of Initial | 98.73 % of Initial | 100.0 | 98.20 % of Initial | 97.05 % of Initial | 97.88 % of Initial | 100.0 | 99.17 % of Initial | 97.61 % of Initial | 98.61 % of Initial | 100.0 | 
